{"source": "paper PMC9138216", "molecular_target": "Bacillus pumilus bilirubin oxidase (Bacillus pumilus)", "assay": "crystal structure; X-ray, 3.5 Å; crystals grown at 20 °C in 0.1 M sodium citrate pH 5.5, 20% PEG 3000; dimer interface analysed with PDBePISA", "data": [{"substance": "Bacillus pumilus bilirubin oxidase (enzyme)", "values": [{"measurement": "stoichiometry N", "value": 2}]}]}
